Laboratory results from the supplement of paper PMC10126150.
± gives the standard deviation of the averaged measurements.

Each sequence was assayed on ATP (assay: switch fluorescence ratio, 500 uM ATP over buffer (Cy3 cluster intensity, sum of 5 cycles each) (fold (ratio)); higher = stronger signal-on switching upon ATP binding; sequences stand for … in TCGTCGGCAGCGTCAGATGTGTATAAGAGACAGTTTTTTTTTTTTTTTTTTTTTTTTT…TC). Conditions: aptamer strand: ATP DNA aptamer (quencher-CACCTGGGGGAGTATTGCGGAGGAAGG + anchor), 100 nM annealed; ATP concentration: 500 uM.
How it was run: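 After annealing to 100 nM quencher-labelled ATP aptamer, Cy3-labelled switching-strand clusters on a modified Illumina MiSeq flow-cell were imaged in selection buffer. A second image followed after 15 min with 500 uM ATP at 22 °C, and five such buffer/ATP cycles were done, each separated by NaOH stripping and re-annealing. The fluorescence ratio, averaged per switch-domain sequence, is summed target-cycle over summed buffer-cycle Cy3 intensity per cluster, with clusters outside 100-1000 RFU excluded.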
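Further: ATP exposure 15 min at 22 °C before imaging.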

Row | Sequence | switch fluorescence ratio
1 | TGCATGTCTT | 0.998 ± 0.033
2 | TGCATTAATG | 0.989 ± 0.012
3 | TGCATTAGGG | 0.993 ± 0.046
4 | TGCATTCAGG | 1.02 ± 0.03
5 | TGCATTCTTT | 0.9999 ± 0.0052
6 | TGCATTTATG | 1.02 ± 0.043
7 | TGCCAAGGTT | 1.02 ± 0.034
8 | TGCCACTCTG | 1.025 ± 0.008
9 | TGCCAGTGTT | 1.22 ± 0.32
10 | TGCCAGTTTG | 0.9907 ± 0.0065
11 | TGCCATAATG | 1.02 ± 0.0057
12 | TGCCCATGGG | 0.9956 ± 0.0045
13 | TGCCCTATTT | 0.986 ± 0.025
14 | TGCCCTGCCT | 1.03 ± 0.024
15 | TGCCGACGGG | 1.01 ± 0.019
16 | TGCCGGAAGA | 1.02 ± 0.029
17 | TGCCGGATTT | 1.02 ± 0.018
18 | TGCCGGCTCG | 1.01 ± 0.012
19 | TGCCGGTTTT | 1.01 ± 0.036
20 | TGCCTATTTC | 1.02 ± 0.017
21 | TGCCTCAGGG | 1.08 ± 0.021
22 | TGCCTTATTA | 1.035 ± 0.0067
23 | TGCCTTTTCG | 1.02 ± 0.057
24 | TGCGAAAATT | 1.01 ± 0.08
25 | TGCGAATTCT | 1.03 ± 0.011

Row | Sequence | switch fluorescence ratio
26 | TGCGAATTGT | 1.01 ± 0.012
27 | TGCGACATGT | 0.969 ± 0.027
28 | TGCGAGAAGG | 0.999 ± 0.011
29 | TGCGCAAAAG | 1.01 ± 0.012
30 | TGCGCATCTA | 1.038 ± 0.0098
31 | TGCGCCAACT | 1.06 ± 0.011
32 | TGCGCCCGGC | 1.031 ± 0.0027
33 | TGCGCCCGGG | 1.033 ± 0.0076
34 | TGCGCCGTGG | 1.02 ± 0.02
35 | TGCGCTACGG | 1.08 ± 0.039
36 | TGCGGAAGTT | 1.01 ± 0.023
37 | TGCGGAGGGC | 1.01 ± 0.043
38 | TGCGGATGTT | 0.953 ± 0.013
39 | TGCGGCGGGT | 1.04 ± 0.012
40 | TGCGGGAAGT | 1 ± 0.014
41 | TGCGGGACT | 2.28 ± 1.8
42 | TGCGGGATGA | 1.04 ± 0.018
43 | TGCGGGCAAT | 1.1 ± 0.039
44 | TGCGGGGAGC | 0.975 ± 0.041
45 | TGCGGGGGAT | 1.02 ± 0.033
46 | TGCGGGGGTT | 1.02 ± 0.03
47 | TGCGGGGTCG | 1.01 ± 0.016
48 | TGCGGGTGTG | 1.03 ± 0.021
49 | TGCGGTAAAA | 1.03 ± 0.063
50 | TGCGGTTTAG | 1.04 ± 0.016

Row | Sequence | switch fluorescence ratio
51 | TGCGTCAGGG | 0.974 ± 0.015
52 | TGCGTCTTTG | 1.01 ± 0.034
53 | TGCGTGCTGG | 0.985 ± 0.022
54 | TGCGTTATAA | 1.02 ± 0.022
55 | TGCGTTGGGG | 0.981 ± 0.019
56 | TGCGTTTGGG | 1.05 ± 0.064
57 | TGCGTTTTTA | 1 ± 0.043
58 | TGCTAAATTA | 1.01 ± 0.011
59 | TGCTAATAGT | 1.028 ± 0.0074
60 | TGCTACAGGT | 1.04 ± 0.022
61 | TGCTAGACTG | 1.03 ± 0.09
62 | TGCTAGTTT | 0.98 ± 0.015
63 | TGCTATATGG | 0.994 ± 0.022
64 | TGCTATGAGG | 1.01 ± 0.043
65 | TGCTCACGGT | 1.02 ± 0.041
66 | TGCTCCTAAC | 1.3 ± 0.051
67 | TGCTGAGGGC | 1.01 ± 0.013
68 | TGCTGCAGTG | 0.966 ± 0.024
69 | TGCTGCGCTT | 1.14 ± 0.081
70 | TGCTGCTCAG | 1.01 ± 0.032
71 | TGCTGCTCGG | 0.973 ± 0.031
72 | TGCTGCTTTT | 0.943 ± 0.036
73 | TGCTGGCATG | 0.967 ± 0.014
74 | TGCTGGGGGA | 1.01 ± 0.025
75 | TGCTGGTATA | 0.983 ± 0.038

Row | Sequence | switch fluorescence ratio
76 | TGCTGGTTGG | 0.998 ± 0.026
77 | TGCTGGTTTT | 1.01 ± 0.037
78 | TGCTGTGTTT | 1.02 ± 0.039
79 | TGCTGTTGTA | 0.998 ± 0.033
80 | TGCTGTTTAC | 1.2 ± 0.28
81 | TGCTTACTTT | 1.33 ± 0.58
82 | TGCTTCCGAA | 1.52 ± 0.082
83 | TGCTTCTAAC | 1.006 ± 0.0082
84 | TGCTTGCTTT | 1.004 ± 0.01
85 | TGCTTGGCTA | 0.98 ± 0.033
86 | TGCTTTGGGG | 0.982 ± 0.071
87 | TGCTTTTTAA | 1.03 ± 0.063
88 | TGGAAAAACT | 1.08 ± 0.029
89 | TGGAAACCGG | 1.009 ± 0.0055
90 | TGGAAAGGGG | 1.01 ± 0.014
91 | TGGAAAGTGT | 0.987 ± 0.018
92 | TGGAAATAAG | 1.03 ± 0.047
93 | TGGAAATTGG | 1.01 ± 0.02
94 | TGGAAATTGT | 0.9944 ± 0.0077
95 | TGGAAATTTT | 1 ± 0.038
96 | TGGAAGCGTC | 1.02 ± 0.022
97 | TGGAAGGGAG | 0.9738 ± 0.0083
98 | TGGAAGGGGA | 1 ± 0.013
99 | TGGAAGGGGC | 1.04 ± 0.035
100 | TGGAAGTTGG | 0.989 ± 0.023

Row | Sequence | switch fluorescence ratio
101 | TGGAATAATT | 1.003 ± 0.0081
102 | TGGAATACG | 1.35 ± 0.036
103 | TGGAATATTC | 1.04 ± 0.011
104 | TGGAATATTT | 1.03 ± 0.044
105 | TGGAATGTTG | 1.02 ± 0.0078
106 | TGGAATTCGG | 1.02 ± 0.0061
107 | TGGAATTGTG | 1.05 ± 0.058
108 | TGGACAACTT | 0.995 ± 0.025
109 | TGGACCAAAA | 1.03 ± 0.013
110 | TGGACCGGTT | 1.034 ± 0.0016
111 | TGGACGCGCT | 1.01 ± 0.025
112 | TGGACGGGTT | 1.02 ± 0.014
113 | TGGACGTCGT | 0.987 ± 0.019
114 | TGGACGTGGG | 0.98 ± 0.052
115 | TGGACGTTGC | 1.03 ± 0.012
116 | TGGACTAGAA | 0.983 ± 0.042
117 | TGGACTCTGG | 0.973 ± 0.02
118 | TGGACTTAGG | 0.987 ± 0.03
119 | TGGAGAGGGA | 0.9805 ± 0.0078
120 | TGGAGAGGGT | 0.976 ± 0.0099
121 | TGGAGAGGTG | 1.02 ± 0.083
122 | TGGAGCTGCA | 1.04 ± 0.09
123 | TGGAGCTTGA | 1.02 ± 0.021
124 | TGGAGGAGGG | 1 ± 0.032
125 | TGGAGGATTG | 0.991 ± 0.016

Row | Sequence | switch fluorescence ratio
126 | TGGAGGGCTT | 1.04 ± 0.021
127 | TGGAGGGGAG | 0.9858 ± 0.0062
128 | TGGAGGGGTT | 1.02 ± 0.037
129 | TGGAGTTTTT | 0.985 ± 0.032
130 | TGGATACACT | 1.04 ± 0.032
131 | TGGATAGTGT | 0.998 ± 0.011
132 | TGGATATAGG | 1.03 ± 0.038
133 | TGGATATTTG | 0.983 ± 0.065
134 | TGGATCCCCA | 1.06 ± 0.091
135 | TGGATGAGCT | 0.9968 ± 0.0088
136 | TGGATGCTTG | 1.01 ± 0.045
137 | TGGATGGAAT | 0.961 ± 0.035
138 | TGGATGTATT | 1.28 ± 0.4
139 | TGGATGTTTA | 1.03 ± 0.024
140 | TGGATTATTG | 0.9445 ± 0.0019
141 | TGGATTGAGC | 0.967 ± 0.026
142 | TGGATTTTGC | 0.989 ± 0.029
143 | TGGCAACACC | 1.94 ± 1.2
144 | TGGCAATGGG | 1.05 ± 0.017
145 | TGGCAGGGGT | 1.56 ± 0.63
146 | TGGCAGGTTG | 1.01 ± 0.013
147 | TGGCCCCTAT | 0.962 ± 0.029
148 | TGGCCGGCTG | 1 ± 0.074
149 | TGGCCGGTGT | 0.991 ± 0.032
150 | TGGCCGGTTT | 1.01 ± 0.011

Row | Sequence | switch fluorescence ratio
151 | TGGCGAACGG | 1.01 ± 0.052
152 | TGGCGAAGTA | 1.01 ± 0.013
153 | TGGCGATAAT | 1.05 ± 0.031
154 | TGGCGCTGGG | 0.978 ± 0.022
155 | TGGCGGGGCG | 1.02 ± 0.038
156 | TGGCGGGGGA | 1.05 ± 0.042
157 | TGGCGGGTCG | 1.06 ± 0.079
158 | TGGCGGGTTA | 0.988 ± 0.067
159 | TGGCGGTGGT | 0.978 ± 0.017
160 | TGGCGGTTTT | 1.005 ± 0.0077
161 | TGGCTAAACG | 0.992 ± 0.019
162 | TGGCTGACAG | 0.992 ± 0.023
163 | TGGCTGTACA | 1.01 ± 0.025
164 | TGGCTGTTTT | 1.04 ± 0.042
165 | TGGCTTAGTT | 0.9956 ± 0.0026
166 | TGGCTTGCCG | 0.998 ± 0.027
167 | TGGCTTTTGT | 1.44 ± 0.63
168 | TGGGAAAATG | 1.018 ± 0.0069
169 | TGGGAAAGGC | 1.07 ± 0.061
170 | TGGGAAATTT | 1.1 ± 0.12
171 | TGGGAACGGG | 0.983 ± 0.018
172 | TGGGAAGAGT | 0.996 ± 0.028
173 | TGGGAAGGGG | 0.998 ± 0.013
174 | TGGGAAGTGG | 1.04 ± 0.071
175 | TGGGAATGGG | 0.986 ± 0.011

Row | Sequence | switch fluorescence ratio
176 | TGGGAATTTT | 1.01 ± 0.049
177 | TGGGACGGGC | 0.98 ± 0.049
178 | TGGGAGAAAG | 0.999 ± 0.024
179 | TGGGAGAGGG | 1.01 ± 0.02
180 | TGGGAGAGTA | 0.996 ± 0.034
181 | TGGGAGGAAA | 1.01 ± 0.039
182 | TGGGAGGAGG | 1.01 ± 0.077
183 | TGGGAGGCCT | 1.02 ± 0.021
184 | TGGGAGGGCT | 1.05 ± 0.093
185 | TGGGAGGGGT | 1.01 ± 0.014
186 | TGGGAGGTGT | 1.04 ± 0.028
187 | TGGGAGTAAA | 1.02 ± 0.027
188 | TGGGAGTACT | 1.0104 ± 0.00041
189 | TGGGAGTCTG | 0.9898 ± 0.0047
190 | TGGGAGTGGG | 0.983 ± 0.019
191 | TGGGATACGG | 1.61 ± 1
192 | TGGGATACTG | 1 ± 0.013
193 | TGGGATAGAG | 1 ± 0.021
194 | TGGGATATTC | 0.9991 ± 0.0032
195 | TGGGATTAGT | 0.9868 ± 0.00058
196 | TGGGCAAGGT | 1.05 ± 0.038
197 | TGGGCAGGGG | 1.3 ± 0.57
198 | TGGGCCAGA | 1.01 ± 0.024
199 | TGGGCCGCGC | 1.04 ± 0.046
200 | TGGGCCTAAG | 0.968 ± 0.061
